Patent US20220119534A1 (DRAGONFLY THERAPEUTICS, published 2022)
Changes are numbered by the printed parent chain. Like-named read-outs stand apart in the source and are kept apart here.

Legend:
[1] = target: T1, recombinant human CLEC12A-His (human, UniProt Q5QGZ9 65-265); test: SPR screening, semi-purified
T1 construct: also called hCLEC12A-His; hCLEC12A
T1 sequence: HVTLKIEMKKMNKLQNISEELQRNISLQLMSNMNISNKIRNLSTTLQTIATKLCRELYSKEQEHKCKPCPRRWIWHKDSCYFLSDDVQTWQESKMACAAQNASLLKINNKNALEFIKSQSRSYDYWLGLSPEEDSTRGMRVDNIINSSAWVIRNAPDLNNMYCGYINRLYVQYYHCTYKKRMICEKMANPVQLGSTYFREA

[2] = target: T2, human CLEC12A on cells (HL60, PL21, Ba/F3-hCLEC12A) (human, UniProt Q5QGZ9 1-265); test: flow cytometry, PL21 cells
T2 construct: Endogenous on the AML lines HL60 and PL21; brought into mouse Ba/F3 cells by retroviral transduction; The cell line stands under assay; also called CLL-1
T2 sequence: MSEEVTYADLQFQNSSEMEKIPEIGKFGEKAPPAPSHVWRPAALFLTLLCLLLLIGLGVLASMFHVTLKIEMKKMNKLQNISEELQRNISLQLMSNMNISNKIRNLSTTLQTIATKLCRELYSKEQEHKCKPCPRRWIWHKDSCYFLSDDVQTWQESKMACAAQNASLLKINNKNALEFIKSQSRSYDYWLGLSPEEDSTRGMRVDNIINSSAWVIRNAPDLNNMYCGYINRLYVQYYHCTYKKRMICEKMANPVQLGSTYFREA

[3] = target: T2, human CLEC12A on cells (HL60, PL21, …); test: flow cytometry, HL60 cells
[4] = target: T2, human CLEC12A on cells (HL60, PL21, …); test: flow cytometry, Ba/F3-hCLEC12A cells
[5] = target: T1, recombinant human CLEC12A-His; test: SPR screening, semi-purified; remark: listed apart in the source

B1: F3'-1292 (other)
chain: QLQLQESGPGLVKPSETLSLTCTVSGFSLTNYGLHWIRQPPGKCLEWIGVIWSGGKTDYNPSLKSRVTISKDTSKNQFSLKLSSVQANDTAVYYCAKYDYDDSLDYWGQGTLVTVSSGGGGSGGGGSGGGGSGGGGSDIQMTQSPSSLSASVGDRVTITCHASQNINFWLSWYQQKPGKIPKLLIYEASNLHTGVPSRFSGSGSGTRFTLTISSLQPEDIATYYCQQSHSYPLTFGCGTKLEIKGSDKTHTCPPCPAPELLGGPSVFLFPPKPKDTLMISRTPEVTCVVVDVSHEDPEVKFNWYVDGVEVHNAKTKPREEQYNSTYRVVSVLTVLHQDWLNGKEYKCKVSNKALPAPIEKTISKAKGQPREPRVYTLPPCRDELTKNQVSLTCLVKGFYPSDIAVEWESNGQPENNYKTTPPVLVSDGSFTLYSKLTVDKSRWQQGNVFSCSVMHEALHNHYTQKSLSLSPG
heavy: EVQLVESGGGLVKPGGSLRLSCAASGFTFSSYSMNWVRQAPGKGLEWVSSISSSSSYIYYADSVKGRFTISRDNAKNSLYLQMNSLRAEDTAVYYCARGAPIGAAAGWFDPWGQGTLVTVSSASTKGPSVFPLAPSSKSTSGGTAALGCLVKDYFPEPVTVSWNSGALTSGVHTFPAVLQSSGLYSLSSVVTVPSSSLGTQTYICNVNHKPSNTKVDKKVEPKSCDKTHTCPPCPAPELLGGPSVFLFPPKPKDTLMISRTPEVTCVVVDVSHEDPEVKFNWYVDGVEVHNAKTKPREEQYNSTYRVVSVLTVLHQDWLNGKEYKCKVSNKALPAPIEKTISKAKGQPREPQVCTLPPSRDELTENQVSLTCLVKGFYPSDIAVEWESNGQPENNYKTTPPVLDSDGSFFLYSWLTVDKSRWQQGNVFSCSVMHEALHNHYTQKSLSLSPG
light: DIQMTQSPSSVSASVGDRVTITCRASQGISSWLAWYQQKPGKAPKLLIYAASSLQSGVPSRFSGSGSGTDFTLTISSLQPEDFATYYCQQGVSFPRTFGGGTKVEIKRTVAAPSVFIFPPSDEQLKSGTASVVCLLNNFYPREAKVQWKVDNALQSGNSQESVTEQDSKDSTYSLSSTLTLSKADYEKHKVYACEVTHQGLSSPVTKSFNRGEC
notes: F3' TriNKET, scFv-Fc chain built from the general F3' description; semi-purified
[1]
  Kd: 3.22 nM
  koff: 0.0013 s⁻¹
  kon: 402000 M⁻¹ s⁻¹

B2: F3'-1296 (other)
chain: B1 chain with K97R
heavy: B1 heavy
light: B1 light
notes: As F3'-1292
[1]
  Kd: 1.34 nM
  koff: 0.00117 s⁻¹
  kon: 874000 M⁻¹ s⁻¹

B3: F3'-1297 (other)
chain: B1 chain with I180A
heavy: B1 heavy
light: B1 light
notes: As F3'-1292
[1]
  Kd: 2.79 nM
  koff: 0.00141 s⁻¹
  kon: 504000 M⁻¹ s⁻¹

B4: F3'-1306 (other)
chain: DIQMTQSPSSLSASVGDRVTITCHASQNINFWLSWYQQKPGKAPKLLIYEASNLHTGVPSRFSGSGSGTRFTLTISSLQPEDIATYYCQQSHSYPLTFGCGTKLEIKGGGGSGGGGSGGGGSGGGGSQLQLQESGPGLVKPSETLSLTCTVSGFSLTNYGLHWIRQPPGKCLEWIGVIWSGGKTDYNPSLKSRVTISKDTSKNQFSLKLSSVQANDTAVYYCAKYDYDDSLDYWGQGTLVTVSSGSDKTHTCPPCPAPELLGGPSVFLFPPKPKDTLMISRTPEVTCVVVDVSHEDPEVKFNWYVDGVEVHNAKTKPREEQYNSTYRVVSVLTVLHQDWLNGKEYKCKVSNKALPAPIEKTISKAKGQPREPRVYTLPPCRDELTKNQVSLTCLVKGFYPSDIAVEWESNGQPENNYKTTPPVLVSDGSFTLYSKLTVDKSRWQQGNVFSCSVMHEALHNHYTQKSLSLSPG
heavy: B1 heavy
light: B1 light
notes: As F3'-1292
[1]
  Kd: 5.16 nM
  koff: 0.0489 s⁻¹
  kon: 9.48e+06 M⁻¹ s⁻¹

B5: AB0300 (other, name in EU numbering)
chain: B1 chain with N88A, I180A, L260A, L261A, P355G
heavy: B1 heavy with L239A, L240A, P334G
light: B1 light
notes: Positions are EU numbers, not positions counted on the entries; also called AB0237si
[2]
  EC50: 1.58 nM
  FOB (fold over background): 18 fold
[3]
  EC50: 1.5 nM
  FOB (fold over background): 65 fold
[4]
  EC50: 2.92 nM
  FOB (fold over background): 368 fold

B6: AB0237-Dead-2D (other)
chain: B1 chain with N88A, I180A
heavy: B1 heavy
light: DIQMTQSPSTLSASVGDRVTITCRASNSISSWLAWYQQKPGKAPKLLIYEASSTKSGVPSRFSGSGSGTEFTLTISSLQPDDFATYYCQQYDDLPTFGGGTKVEIKRTVAAPSVFIFPPSDEQLKSGTASVVCLLNNFYPREAKVQWKVDNALQSGNSQESVTEQDSKDSTYSLSSTLTLSKADYEKHKVYACEVTHQGLSSPVTKSFNRGEC
notes: also called AB0237 NKG2D dead arm variant
[2]
  EC50: 0.63 nM
  FOB (fold over background): 14 fold
[3]
  EC50: 1.19 nM
  FOB (fold over background): 59 fold
[4]
  EC50: 2.35 nM
  FOB (fold over background): 357 fold

B7: hcFAE-A49.h6E7 (Duobody TriNKET) (bispecific antibody, V domains shown)
VH 1: EVQLVQSGAEVKKPGASVKVSCKASGYSFTDYYMHWVRQAPGQGLEWIGRINPYNGAAFYSQNFKDRVTLTVDTSTSTAYLELSSLRSEDTAVYYCAIERGADLEGYAMDYWGQGTLVTVSS
VL 1: DIQMTQSPSSLSASVGDRVTITCRASQSVSTSSYNYMHWYQQKPGKPPKLLIKYASNLESGVPSRFSGSGSGTDFTLTISSLQPEDFATYYCQHSWEIPLTFGQGTKVEIK
VH 2: EVQLVESGGGLVKPGGSLRLSCAASGFTFSSYSMNWVRQAPGKGLEWVSSISSSSSYIYYADSVKGRFTISRDNAKNSLYLQMNSLRAEDTAVYYCARGAPMGAAAGWFDPWGQGTLVTVSS
VL 2: DIQMTQSPSSVSASVGDRVTITCRASQGISSWLAWYQQKPGKAPKLLIYAASSLQSGVPSRFSGSGSGTDFTLTISSLQPEDFATYYCQQGVSFPRTFGGGTKVEIK
notes: also called Duobody TriNKET based on h6E7 antibody from Genentech
[2]
  EC50: 0.55 nM
  FOB (fold over background): 10 fold
[3]
  EC50: 1.33 nM
  FOB (fold over background): 31 fold
[4]
  EC50: 2.87 nM
  FOB (fold over background): 318 fold

B8: hcFAE-A49.CLL1-Merus (Duobody TriNKET) (bispecific antibody, V domains shown)
VH 1: EVQLVQSGAEVKKPGASVKVSCKASGYTFTSYYMHWVRQAPGQGLEWMGIINPSGGSTSYAQKFQGRVTMTRDTSTSTVYMELSSLRSEDTAVYYCARGNYGDEFDYWGQGTLVTVSS
VL 1: not shown
VH 2: B7 VH 2
VL 2: B7 VL 2
notes: Duobody format; also called Duobody TriNKET based on CLL1 antibody from Merus
[2]
  EC50: 1.13 nM
  FOB (fold over background): 15 fold
[3]
  EC50: 2.79 nM
  FOB (fold over background): 59 fold
[4]
  EC50: 4.45 nM
  FOB (fold over background): 369 fold

B9: AB0188 (other)
chain: DIKMTQSPSSLSASVGDRVTITCKASQDIYNYLSWFQQKPGKAPKPLIYRANILVSGVPSRFSGSGSGQDYTLTISSLQPEDIATYYCLQFDAFPFTFGCGTKLEIKGGGGSGGGGSGGGGSGGGGSEVQLVESGGGVVQPGGSLRLSCAASGFTFNSFGMHWVRQAPGKCLEWVAFISSGSTSIYYANTVKGRFTISRDNSKNTLYLQMNSLRAEDTAVYYCARDGYPTGGAMDYWGQGTSVTVSSGSDKTHTCPPCPAPELLGGPSVFLFPPKPKDTLMISRTPEVTCVVVDVSHEDPEVKFNWYVDGVEVHNAKTKPREEQYNSTYRVVSVLTVLHQDWLNGKEYKCKVSNKALPAPIEKTISKAKGQPREPRVYTLPPCRDELTKNQVSLTCLVKGFYPSDIAVEWESNGQPENNYKTTPPVLVSDGSFTLYSKLTVDKSRWQQGNVFSCSVMHEALHNHYTQKSLSLSPG
heavy: B1 heavy
light: B1 light
notes: As AB0185
[5]
  Kd: 1.58 nM
  koff: 0.000901 s⁻¹
  kon: 569000 M⁻¹ s⁻¹
